Data reported in article PMC4433220.

Target: Dps (Escherichia coli) (UniProt P0ABT2)
Assay: AFM
Details: EMSA: 50 mM Tris-HCl pH 7.5, 0.1 mM EDTA, 50 mM NaCl, 37°C 30 min, footprinting: 50 mM Tris-HCl pH 8.0, 0.1 mM EDTA, 0.1 mM DTT, 10 mM MgCl2, 50 mM NaCl …

| Substance | binding signal (nm DNA per bound Dps) | binding signal (nm DNA per bound Dps) (nicked at GAGTC sites (9 sites), 4 nt 3' of the site, top strand) |
| --- | --- | --- |
| pET28b native | 135 |  |
| pET28b nicked with Nt.BspD6I |  | 117 |
